# T1: GA4: H-(GA)4HHHHHH-NH2
# T1 peptide: H-GAGAGAGAHHHHHH-NH2
# T2: GA2: H-(GA)2HHHHHH-NH2
# T2 peptide: H-GAGAHHHHHH-NH2
# B1: NI-308.45C2 (antibody, V domains shown)
# VH: QLQLQESGPGLVKPSQILSLTCAISGDSVFSNSAAWNWIRQSPSRGLEWLGRTYYRSKWDNDYAPSVKSRISINPDTSKNQFSLQLNSVTPEDTAVYYCAREVAYCGGDCYSVSFDYWGQGTLVTVSS
# VL: not shown
# notes: Recombinant complete human IgG1, kappa
# B2: NI-308.6B11 (antibody, V domains shown)
# VH: EVQLVQSGAEVKRPGASVKVSCKVSGYTLTELSMHWVRQAPGKGLEWMGGFDPEDGETVYAQKFQGRVTMTEDTSTDTAYMELSSLRSEDTALYHCATYGSSWHWNEGNEGSYYFDYWGQGTLVTVSS
# VL: CDIQMTQSPSSLSASVGDRVTITCQASQDISIYLNWYQQKPGKAPKLLIYDASNLETGVPSRFSGSGSGTDFTFTISGLQPEDVARYYCQQYDDLPITFGQGTRLEIK
# notes: as for B1
# B3: NI-308.18F7 (antibody, V domains shown)
# VH: QVQLQESGPGLVKPSETLSVTCTVSGGSINDYYWNWIRQPAGKGLEWIGRIYASGTINYNPSLQSRVTMSIDTSKNQFSLDLISVSAADTAVYYCARWGQVVGDYYYGMDVWGQGTTVTVSS
# VL: EIVLTQSPLSLSVTPGEPASISCKSSQSLQHTNGYNYLDWYLLKPGQSPQLLIFLTSNRASGVPDRFSGSGSGTNFTLKISRVEAEDVGVYYCMEGIQLWTFGQGTKLEIK
# notes: as for B1
# How the values were obtained:
# [1] = biological target: T3, BSA-coupled (GA)15 DPR protein peptide (bovine, conjugated via a bifunctional linker (SMCC) to bovine serum albumin); test: indirect ELISA, BSA-coupled peptide coated, antibody titrated [also D00013 FIG. 3E]
# T3 construct: also called BSA-(GA)15
# T3 sequence (P02769 25-607 limits assumed): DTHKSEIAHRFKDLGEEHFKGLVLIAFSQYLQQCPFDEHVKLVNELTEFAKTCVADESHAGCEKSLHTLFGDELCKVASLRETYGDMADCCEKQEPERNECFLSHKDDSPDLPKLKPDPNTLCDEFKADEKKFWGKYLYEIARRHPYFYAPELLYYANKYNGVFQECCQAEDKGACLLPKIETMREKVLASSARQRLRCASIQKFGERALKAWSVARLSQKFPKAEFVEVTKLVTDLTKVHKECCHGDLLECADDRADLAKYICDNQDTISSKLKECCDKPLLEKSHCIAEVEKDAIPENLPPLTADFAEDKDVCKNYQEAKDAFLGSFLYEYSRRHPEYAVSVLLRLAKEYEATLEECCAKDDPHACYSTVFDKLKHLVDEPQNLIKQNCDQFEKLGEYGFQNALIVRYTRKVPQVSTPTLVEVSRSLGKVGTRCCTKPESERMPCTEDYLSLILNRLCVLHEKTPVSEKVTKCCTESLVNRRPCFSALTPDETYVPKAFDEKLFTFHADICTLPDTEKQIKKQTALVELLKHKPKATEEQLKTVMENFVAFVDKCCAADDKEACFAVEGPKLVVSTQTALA
# Description: In brief, dipeptide repeat proteins were synthesized and purified by Schafer-N(Copenhagen, Denmark): (GA)₁₅: H-CHHHHHH(GA)₁₅-OH; (GP)₁₅: H-C(GP)₁₅-OH; (GR)₁₅: H-C(GR)₁₅-OH; (PA)₁₅: H-C(PA)₁₅-OH; (PR)₁₅: H—C(PR)₁₅-OH. DPR protein peptides were then conjugated via a bifunctional linker (SMCC) to bovine serum albumin (BSA). 96-well microplates (Corning Incorporated, Corning, USA) were coated with BSA-coupled or -uncoupled dipeptide repeat protein peptides at a concentration of either 5 μg/ml or 20 μg/ml in coating buffer (15 mM Na₂CO₃, 35 mM NaHCO₃, pH 9.42). Non-specific binding sites were blocked for 1 h at room temperature with PBS/0.1% Tween®-20 containing 2% BSA (Sigma-Aldrich, Buchs, Switzerland). Primary antibodies were diluted to the indicated concentrations and incubated 1 h at room temperature, followed by incubation with a donkey anti-human IgG Fcγ-specific antibody conjugated with HRP (Jackson ImmunoResearch Laboratories, Inc., West Grove, USA). Binding was determined by measurement of HRP activity in a standard colorimetric assay. EC₅₀ values were estimated by non-linear regression using GraphPad Prism software (San Diego, USA).
# [2] = biological target: T4, BSA-coupled (PA)15 DPR protein peptide (bovine, UniProt P02769 25-607, conjugated via a bifunctional linker (SMCC) to bovine serum albumin); test: Western blot, BSA-coupled peptide
# T4 construct: also called BSA-(PA)15
# T4 sequence (peptide, as listed by the source limits assumed, chain 1 of 2): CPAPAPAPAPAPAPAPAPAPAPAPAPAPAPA
# T4 sequence (P02769 25-607 limits assumed, chain 2 of 2): as the sequence (P02769 25-607 limits assumed) above
# Description: (§1) Resolved proteins were then electroblotted (Novex® Semi-Dry Blotter, 1 h, 25V) on methanol-activated PVDF membranes (Immobilon®-P Transfer Membrane, Merck & Cie, Schaffhausen, Switzerland) by the use of Novex® NuPAGE® transfer buffer 2× (Life Technologies Europe B.V., Zug, Switzerland). Non-specific binding sites were blocked overnight at 4° C. (or alternatively for 1 h at room temperature) with PBS/0.1% Tween®-20 containing 2% BSA (Sigma-Aldrich, Buchs, Switzerland) (PBST). […] Membranes were washed three times in PBST for 15 min at RT and then incubated with a donkey anti-human IgG Fcγ-specific antibody conjugated with HRP (1:20000 or 1:10000 dilution, Jackson ImmunoResearch Laboratories, Inc., West Grove, USA) for 1 h at room temperature. Antibody binding was determined by membrane development using ECL and ImageQuant 350 detection (GE Healthcare, Otelfingen, Switzerland).
# (§2) The binding specificity of the human-derived antibodies to BSA-coupled C9orf72 dipeptide repeat proteins (GA)₁₅, (GP)₁₅, (GR)₁₅, (PA)₁₅ and (PR)₁₅ was determined by Western blot analysis.
# [3] = biological target: T5, BSA-coupled (GP)15 DPR protein peptide (bovine, conjugated via a bifunctional linker (SMCC) to bovine serum albumin); test: Western blot, BSA-coupled peptide
# T5 construct: also called BSA-(GP)15
# T5 sequence (peptide, as listed by the source limits assumed, chain 1 of 2): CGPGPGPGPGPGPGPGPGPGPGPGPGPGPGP
# T5 sequence (P02769 25-607 limits assumed, chain 2 of 2): as the sequence (P02769 25-607 limits assumed) above
# Description: as §1, §2
# GA4: H-(GA)4HHHHHH-NH2 = biological target: T1, GA4: H-(GA)4HHHHHH-NH2; test: indirect ELISA, His-tagged peptide coated at 50 ug/ml, antibody titrated [also D00025 FIG. 7G]
# Excerpt: (§3) In brief, dipeptide repeat proteins were synthesized and purified by Schafer-N (Copenhagen, Denmark): GA₂₀: H-(GA)₂₀HHHHHH-NH₂; GA₁₀: H-(GA)₁₀HHHHHH-NH₂; GA₆: H-(GA)₆HHHHHH-NH₂; GA₅: H-(GA)₅HHHHHH-NH₂; GA₄: H-(GA)₄HHHHHH-NH₂; GA₃: H-(GA)₃HHHHHH-NH₂; GA₂: H-(GA)₂HHHHHH-NH₂; GP₂₀: H-(GP)₂₀HHHHHH-NH₂; GP₁₀: H-(GP)₁₀HHHHHH-NH₂; GP₆: H-(GP)₆HHHHHH-NH₂; GP₅: H-(GP)₅HHHHHH-NH₂; GP₄: H-(GP)₄HHHHHH-NH₂; GP₃: H-(GP)₃HHHHHH-NH₂; GP₂: H-(GP)₂HHHHHH-NH₂. GR₂₀: H-(GR)₂₀HHHHHH-NH₂; GR₁₀: H-(GR)₁₀HHHHHH-NH₂; GR₆: H-(GR)₆HHHHHH-NH₂; GR₅: H-(GR)₅HHHHHH-NH₂; GR₄: H-(GR)₄HHHHHH-NH₂; GR₃: H-(GR)₃HHHHHH-NH₂; GR₂: H-(GR)₂HHHHHH-NH₂; PA₂₀: H-(PA)₂₀HHHHHH-NH₂; PA₁₀: H-(PA)₁₀HHHHHH-NH₂; PA₆: H-(PA)₆HHHHHH-NH₂; PA₅: H-(PA)₅HHHHHH-NH₂; PA₄: H-(PA)₄HHHHHH-NH₂; PA₃: H-(PA)₃HHHHHH-NH₂; PA₂: H-(PA)₂HHHHHH-NH₂; PR₂₀: H-(PR)₂₀HHHHHH-NH₂; PR₁₀: H-(PR)₁₀HHHHHH-NH₂; PR₆: H-(PR)₆HHHHHH-NH₂; PR₅: H-(PR)₅HHHHHH-NH₂; PR₄: H-(PR)₄HHHHHH-NH₂; PR₃: H-(PR)₃HHHHHH-NH₂; PR₂: H-(PR)₂HHHHHH-NH₂. 96-well microplates (Corning Incorporated, Corning, USA) were coated with dipeptide repeat protein peptides at a concentration of 50 μg/ml in coating buffer (15 mM Na₂CO₃, 35 mM NaHCO₃, pH 9.42). Non-specific binding sites were blocked for 1 h at room temperature with PBS/0.1% Tween®-20 containing 2% BSA (Sigma-Aldrich, Buchs, Switzerland). Primary antibodies were diluted to the indicated concentrations and incubated 1 h at room temperature, followed by incubation with a donkey anti-human IgG Fcγ-specific antibody conjugated with HRP (Jackson ImmunoResearch Laboratories, Inc., West Grove, USA). Binding was determined by measurement of HRP activity in a standard colorimetric assay. EC₅₀ values were estimated by non-linear regression using GraphPad Prism software (San Diego, USA).
# GA2: H-(GA)2HHHHHH-NH2 = biological target: T2, GA2: H-(GA)2HHHHHH-NH2; test: as above
# Excerpt: as §3
binder,measurement,setting,value
B1,EC50,[1],15.2 nM
B2,binding result,[2],no binding (tested: 10 nM or 100 nM)
same,binding result,[3],no binding (tested: 10 nM or 100 nM)
B3,binding result,GA4: H-(GA)4HHHHHH-NH2,no binding (tested: about 4x10^5 pM (last point))
same,binding result,GA2: H-(GA)2HHHHHH-NH2,no binding (tested: about 4x10^5 pM (last point))

# Reference: patent US20200010567A1 (NEURIMMUNE, published 2020)
